Experimental data: EP4745153A1, “GLP-1, GIP AND GCG RECEPTOR […] USE THEREOF” (Jiangsu Hengrui Pharmaceuticals Co., Ltd., priority 2023, dated 2025)
Read-outs that look alike come from different tables or passages of the source. Starred links: 1 amine or outer side, 2 acyl side, 3 side chain; linkers in the order of their positions; H or OH if unused. Non-standard residues stand in square brackets, D forms with d. Residues, ends and D or L forms follow the SMILES beside them. Groups on a side chain read outwards from the residue. No end group written: not given here. *: point of attachment. C20 diacid = O=C(O)CCCCCCCCCCCCCCCCCCC(=O)*; γGlu = O=C(O)[C@H](CCC(=O)[*:2])N[*:1]; αMeL = CC(C)C[C@](C)(N)C(=O)O; αMeK = C[C@](N)(CCCCN)C(=O)O; αMeS = C[C@](N)(CO)C(=O)O; AEEA = NCCOCCOCC(=O)O; αS = not defined here; Aib = CC(C)(N)C(=O)O

What was measured:
[1] = Physical stability of solution in the vehicle; type: physicochemical; details: incubation at 25 degrees Celsius for 28 days; stated in the description, no method given
[2] = target: T1, human glucagon-like peptide-1 receptor (human, UniProt P43220 24-463); assay: cell-based or functional assay
Target sequence in this assay (P43220 24-463): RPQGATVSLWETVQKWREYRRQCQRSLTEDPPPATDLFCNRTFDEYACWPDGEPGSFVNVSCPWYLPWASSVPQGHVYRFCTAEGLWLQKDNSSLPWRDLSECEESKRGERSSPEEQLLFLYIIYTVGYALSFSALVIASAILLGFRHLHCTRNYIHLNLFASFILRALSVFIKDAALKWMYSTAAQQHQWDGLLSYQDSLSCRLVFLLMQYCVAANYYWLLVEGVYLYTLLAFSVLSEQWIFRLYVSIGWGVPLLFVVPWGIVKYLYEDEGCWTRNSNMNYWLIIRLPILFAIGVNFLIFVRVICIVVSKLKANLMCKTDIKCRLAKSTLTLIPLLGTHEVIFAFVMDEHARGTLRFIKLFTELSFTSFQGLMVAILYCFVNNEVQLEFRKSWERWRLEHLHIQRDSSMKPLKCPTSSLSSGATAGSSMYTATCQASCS

human glucagon receptor [3] = target: T2, human glucagon receptor (human, UniProt P47871 26-477); assay: cell-based or functional assay
[4] = target: human glucose-dependent insulinotropic polypeptide receptor (human) (UniProt P48546); assay: cell-based or functional assay
human GLP-1R = target: T3, human GLP-1R (Homo sapiens, UniProt P43220); assay: cAMP HTRF agonist activity assay in CHO-K1 cells expressing GLP-1R; type: cell-based
T3 construct: expressed in transfected cells; host or cells: CHO-K1 clonal cell line
Procedure, shortened: (§1)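 Clonal CHO-K1 lines, 5000 cells/well, exposed to polypeptides for 30 min at 37°C. Intracellular cAMP read by HTRF (cAMP-d2 conjugate plus anti-cAMP-Eu cryptate in lysis buffer). Relative EC50 from four-parameter nonlinear fit of percent maximum response against concentration.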

human GIPR = target: T4, human GIPR (Homo sapiens, UniProt P48546); assay: cAMP HTRF agonist activity assay in CHO-K1 cells expressing GIPR; type: cell-based
T4 construct: expressed in transfected cells; host or cells: CHO-K1 clonal cell line
T4 sequence (P48546 22-466): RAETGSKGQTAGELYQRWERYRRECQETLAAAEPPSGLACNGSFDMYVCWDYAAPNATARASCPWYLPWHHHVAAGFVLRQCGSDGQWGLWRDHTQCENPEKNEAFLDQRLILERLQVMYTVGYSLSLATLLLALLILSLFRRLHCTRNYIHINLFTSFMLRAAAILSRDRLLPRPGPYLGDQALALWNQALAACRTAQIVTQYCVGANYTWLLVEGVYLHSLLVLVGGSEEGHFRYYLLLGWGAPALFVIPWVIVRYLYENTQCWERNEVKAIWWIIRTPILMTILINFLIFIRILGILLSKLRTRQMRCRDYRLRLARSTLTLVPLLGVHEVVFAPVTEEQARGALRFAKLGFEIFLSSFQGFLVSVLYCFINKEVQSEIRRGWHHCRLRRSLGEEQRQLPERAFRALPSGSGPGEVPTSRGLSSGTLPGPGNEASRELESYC
Procedure, shortened: as §1

[5] = Pharmacokinetics in mice after single intravenous injection; parameters: species or system C57 mice; details: mouse, in vivo, male C57 mice, single intravenous dose 200 nmol/kg, plasma
Procedure, shortened: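 Male C57 mice (~25 g, 4-6 weeks, n=3) received a single i.v. dose of 200 nmol/kg in 1×PBS. Plasma collected from 5 min to 72 h was methanol-precipitated with verapamil internal standard and quantified by LC-MS (ESI positive, MRM); PK parameters were calculated by PKSolver.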

[6] = In vivo efficacy in diet-induced obesity (DIO) mouse model; parameters: species or system C57BL/6J mice; details: 10 nmol/kg subcutaneous once daily for 24 days, indicating good safety
Text: In this example, a DIO mouse model established by high-fat diet induction was used to evaluate the effects on and improvement of obesity and diabetes-related indicators in DIO mice after subcutaneous injection of some of the compounds in the present disclosure.
4.1 Experimental methods: Obese male C57BL/6J mice (23-24 weeks old, obtained from Beijing Vital River Laboratory Animal Technology Co., Ltd.) induced by a high-fat diet were purchased. Six-week-old male C57BL/6J mice were fed a 60% high-fat diet (RD D12492) until their body weight reached 45-50g to obtain DIO model mice. After arriving at the facility and undergoing a week of acclimatization feeding, the animals were randomly divided into groups according to their body weight and administered vehicle (model group), LY3437943, Compound 15, Compound 16, Compound 17 and Compound 18 via subcutaneous injection in the neck. The compound was administered at a dose of 10 nmol/kg, and the frequency of administration was once daily via subcutaneous injection for 24 days. Each group contained 5 DIO mice. According to the experimental design, the body weight of each mouse was weighed and recorded daily at 3 pm or before administration, the average body weight of each group of mice was calculated, and a curve of body weight change over time was plotted. After the experiment, the fat and other organs of the mice were removed from various parts of the body, weighed, and recorded.

[7] = Solubility in the vehicle; type: physicochemical; details: stated in the summary only, no test example
[8] = target: T1, human glucagon-like peptide-1 receptor; assay: cell-based or functional assay; remark: listed apart in the source
[9] = target: T5, human glucose-dependent insulinotropic polypeptide receptor (human, UniProt P48546 22-466); assay: cell-based or functional assay
T5 sequence (looked up): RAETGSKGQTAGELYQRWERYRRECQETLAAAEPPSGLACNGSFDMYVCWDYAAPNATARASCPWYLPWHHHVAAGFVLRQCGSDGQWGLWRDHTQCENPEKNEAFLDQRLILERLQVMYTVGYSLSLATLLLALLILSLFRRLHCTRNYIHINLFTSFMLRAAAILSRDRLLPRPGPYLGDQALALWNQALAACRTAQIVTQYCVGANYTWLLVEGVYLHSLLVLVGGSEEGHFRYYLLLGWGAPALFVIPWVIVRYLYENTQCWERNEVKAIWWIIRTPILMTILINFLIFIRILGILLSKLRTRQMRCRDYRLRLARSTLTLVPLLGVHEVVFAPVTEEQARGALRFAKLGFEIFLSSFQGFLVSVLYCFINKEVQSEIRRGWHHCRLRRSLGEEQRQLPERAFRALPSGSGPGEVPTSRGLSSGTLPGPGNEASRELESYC

human glucagon receptor [10] = target: T2, human glucagon receptor; assay: cell-based or functional assay; remark: listed apart in the source

T2 sequence (P47871 26-477): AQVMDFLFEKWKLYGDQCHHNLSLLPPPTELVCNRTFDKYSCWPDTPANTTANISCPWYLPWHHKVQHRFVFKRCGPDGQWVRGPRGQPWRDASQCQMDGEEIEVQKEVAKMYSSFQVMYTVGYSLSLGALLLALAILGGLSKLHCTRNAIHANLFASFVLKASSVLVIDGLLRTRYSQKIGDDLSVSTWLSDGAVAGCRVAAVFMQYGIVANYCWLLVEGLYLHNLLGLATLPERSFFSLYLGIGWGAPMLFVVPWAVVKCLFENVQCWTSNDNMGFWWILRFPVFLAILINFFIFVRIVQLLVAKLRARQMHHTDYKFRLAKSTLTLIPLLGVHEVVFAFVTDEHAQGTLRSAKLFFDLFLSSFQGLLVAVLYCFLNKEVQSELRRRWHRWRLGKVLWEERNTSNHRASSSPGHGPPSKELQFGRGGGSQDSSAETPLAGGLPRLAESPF
T3 sequence (P43220 24-463): as the sequence (P43220 24-463) above

In the case of “H-Aib-HGTFTSDYSI-αL-LE-K(-OEG-OEG-γGlu-C(O)-(CH2)18-COOH)-KAAQEFVEWLLAGGPSSGAPPPS-NH2 (H[Aib]HGTFTSDYSI[αMeL]LEK([AEEA-AEEA-γGlu-C20 diacid])KAAQEFVEWLLAGGPSSGAPPPS-NH2; N-terminus assumed; SMILES CC[C@H](C)[C@H](NC(=O)[C@H](CO)NC(=O)[C@H](Cc1ccc(O)cc1)NC(=O)[C@H](CC(=O)O)NC(=O)[C@H](CO)NC(=O)[C@@H](NC(=O)[C@H](Cc1ccccc1)NC(=O)[C@@H](NC(=O)CNC(=O)[C@H](Cc1c[nH]cn1)NC(=O)C(C)(C)NC(=O)[C@@H](N)Cc1c[nH]cn1)[C@@H](C)O)[C@@H](C)O)C(=O)N[C@@](C)(CC(C)C)C(=O)N[C@@H](CC(C)C)C(=O)N[C@@H](CCC(=O)O)C(=O)N[C@@H](CCCCNC(=O)COCCOCCNC(=O)COCCOCCNC(=O)CC[C@H](NC(=O)CCCCCCCCCCCCCCCCCCC(=O)O)C(=O)O)C(=O)N[C@@H](CCCCN)C(=O)N[C@@H](C)C(=O)N[C@@H](C)C(=O)N[C@@H](CCC(N)=O)C(=O)N[C@@H](CCC(=O)O)C(=O)N[C@@H](Cc1ccccc1)C(=O)N[C@H](C(=O)N[C@@H](CCC(=O)O)C(=O)N[C@@H](Cc1c[nH]c2ccccc12)C(=O)N[C@@H](CC(C)C)C(=O)N[C@@H](CC(C)C)C(=O)N[C@@H](C)C(=O)NCC(=O)NCC(=O)N1CCC[C@H]1C(=O)N[C@@H](CO)C(=O)N[C@@H](CO)C(=O)NCC(=O)N[C@@H](C)C(=O)N1CCC[C@H]1C(=O)N1CCC[C@H]1C(=O)N1CCC[C@H]1C(=O)N[C@@H](CO)C(N)=O)C(C)C) [Compound 0125]”, the “appearance of the solution in the vehicle” value [1] is reported as “remains clear and transparent”.

LY3437943 (peptide) gave an Activity against human GLP-1R (EC50 nM) [2] of 0.08 nM, an Activity against human GCGR (EC50 nM) (human glucagon receptor [3]) of 0.412 nM and an Activity against human GIPR (EC50 nM) [4] of 0.002 nM.

In the case of “H-Aib-HGTFTSDYS-αK-LLE-K(-OEG-OEG-γGlu-C(O)-(CH2)18-COOH)-KAA-αS-EFVEWLIEGGPSSGAPPPS-NH2 (H[Aib]HGTFTSDYS[αMeK]LLEK([AEEA-AEEA-γGlu-C20 diacid])KAA[αS]EFVEWLIEGGPSSGAPPPS-NH2; reading uncertain; also: printed as H-Aib-HGTFTSDYS-αK-LLE-K(-OEG-OEG-γGlu-C(O)-(CH2)18-COOH)-KAA-αS-EFVEWLIEGGPSSGAPPPS-NH2) [Compound 0126]”, the “appearance of the solution in the vehicle” value [1] is reported as “remains clear and transparent”.

With `CC[C@H](C)[C@H](NC(=O)[C@H](CO)NC(=O)[C@H](Cc1ccc(O)cc1)NC(=O)[C@H](CC(=O)O)NC(=O)[C@H](CO)NC(=O)[C@@H](NC(=O)[C@H](Cc1ccccc1)NC(=O)[C@@H](NC(=O)CNC(=O)[C@H](Cc1c[nH]cn1)NC(=O)C(C)(C)NC(=O)[C@@H](N)Cc1c[nH]cn1)[C@@H](C)O)[C@@H](C)O)C(=O)N[C@@](C)(CC(C)C)C(=O)N[C@@H](CC(C)C)C(=O)N[C@@H](CCC(=O)O)C(=O)N[C@@H](CCCCNC(=O)COCCOCCNC(=O)COCCOCCNC(=O)CC[C@H](NC(=O)CCCCCCCCCCCCCCCCCCC(=O)O)C(=O)O)C(=O)N[C@@H](CCCCN)C(=O)N[C@@H](C)C(=O)N[C@@H](C)C(=O)N[C@@H](CCC(N)=O)C(=O)N[C@@H](CCC(=O)O)C(=O)N[C@@H](Cc1ccccc1)C(=O)N[C@H](C(=O)N[C@@H](CCC(=O)O)C(=O)N[C@@H](Cc1c[nH]c2ccccc12)C(=O)N[C@@H](CC(C)C)C(=O)N[C@@H](CC(C)C)C(=O)N[C@@H](C)C(=O)NCC(=O)NCC(=O)N1CCC[C@H]1C(=O)N[C@@H](CO)C(=O)N[C@@H](CO)C(=O)NCC(=O)N[C@@H](C)C(=O)N1CCC[C@H]1C(=O)N1CCC[C@H]1C(=O)N1CCC[C@H]1C(=O)N[C@@H](CO)C(N)=O)C(C)C` [Compound 0125] (H-H[Aib]HGTFTSDYSI[αMeL]LEK([AEEA-AEEA-γGlu-C20 diacid])KAAQEFVEWLLAGGPSSGAPPPS-NH2) the EC50 (human GLP-1R) was 32 pM, the EC50 (human GIPR) was 2 pM and the AUC(0-inf) [5] was 96.1 µM·h. The C0 [5] was 5.79 µM, the clearance ([5]; read-out: CLp) was 2.1 mL/h/kg and the half-life ([5]; read-out: T1/2 (converted)) was 14.6 h. The “final body weight relative to body weight of mice on a normal diet (Chow)” value [6] was at least 80% and the “solubility in the vehicle” value [7] was at least 20 mg/mL.

B1: Compound No. 0126 (peptide)
peptide: H[Aib]HGTFTSDYS[αMeK]LLEK([AEEA-AEEA-γGlu-C20 diacid])KAA[αMeS]EFVEWLIEGGPSSGAPPPS-NH2
modifications: N-terminus assumed
SMILES: CC[C@H](C)[C@H](NC(=O)[C@H](CC(C)C)NC(=O)[C@H](Cc1c[nH]c2ccccc12)NC(=O)[C@H](CCC(=O)O)NC(=O)[C@@H](NC(=O)[C@H](Cc1ccccc1)NC(=O)[C@H](CCC(=O)O)NC(=O)[C@](C)(CO)NC(=O)[C@H](C)NC(=O)[C@H](C)NC(=O)[C@H](CCCCN)NC(=O)[C@H](CCCCNC(=O)COCCOCCNC(=O)COCCOCCNC(=O)CC[C@H](NC(=O)CCCCCCCCCCCCCCCCCCC(=O)O)C(=O)O)NC(=O)[C@H](CCC(=O)O)NC(=O)[C@H](CC(C)C)NC(=O)[C@H](CC(C)C)NC(=O)[C@](C)(CCCCN)NC(=O)[C@H](CO)NC(=O)[C@H](Cc1ccc(O)cc1)NC(=O)[C@H](CC(=O)O)NC(=O)[C@H](CO)NC(=O)[C@@H](NC(=O)[C@H](Cc1ccccc1)NC(=O)[C@@H](NC(=O)CNC(=O)[C@H](Cc1c[nH]cn1)NC(=O)C(C)(C)NC(=O)[C@@H](N)Cc1c[nH]cn1)[C@@H](C)O)[C@@H](C)O)C(C)C)C(=O)N[C@@H](CCC(=O)O)C(=O)NCC(=O)NCC(=O)N1CCC[C@H]1C(=O)N[C@@H](CO)C(=O)N[C@@H](CO)C(=O)NCC(=O)N[C@@H](C)C(=O)N1CCC[C@H]1C(=O)N1CCC[C@H]1C(=O)N1CCC[C@H]1C(=O)N[C@@H](CO)C(N)=O
In the case of B1, the “Activity against human GLP-1R (EC50 nM)” value [8] is reported as 0.008 nM, the “Activity against human GIPR (EC50 nM)” value [9] is reported as 0.002 nM and the “Activity against human GCGR (EC50 nM)” value (human glucagon receptor [10]) is reported as 0.008 nM.
